Reference: a protein production outcome set (Wang et al. 2014)

Experiment: label from the status in PepcDB records

Row | Sequence | protein production
1 | IGGHVGYGVAKSYRGKGYATILLEKALDELKTLNVEVVLMTCNPLNFASQTVMKKCGGYQIESYIKKNGKPVHRYHIPNT | failed
2 | MVKALFSLLFVAFIWGSTFPIQKIVLVGVSPTFYIAVRFFIAALVSYFLFGKGNVKYGSILGTLLGIAYTTQTWGLTITTSTKSGFITSMYIVFVPVFAYLLEREIPTIFQIVSFFAASLGLYMISGGIKDFNFGDFLTLICAVSFALHVVLITMFSKRVKEVDLLFPQFLVVGILNLILNFFWKNWNFTLPALGSAVFTALAATILAIYLQAKYQKALGNNVSAIVFLGEPVFAAVVSYFMLGETMAGKQLLGAALLLISMLFSSLERVKIVRDANQKGRDECEDSL | failed
3 | MPTNAGTSLSSYKHIVAIGTTVKSESLESAAYEIPRKRKMRSDSAAVSGNSVSTPKKLKSHLPSSVPNPGMSEKEVVEDSNEILRYPVNLAVSDCLGTKSKWSPRDEEQMRAVKEALHVSKAPSTILCREDEQIRIFEFVKGCIDQQKAGSLYICGCPGTGKSLSMEKVVQQVGDWSTQAGLPPVDTLSVNCTSLSKTTDIFSKILGEIKPGKNANTNSSPLQHLQNLFSQKQESSSSRMMLIIADEMDYLITKDRGVLYDLFMLTTLPFSRCILIGVANAIDLADRFLPKLKSLNCKPMVITFRAYSKDQILRILQERLRVLSYVAFQPKALELCARKVAAASGDMRKALCVCRSALEILEIETRGSTGPESQGPTPDDSVVRMDHMAAALSKTFKSPVVETIQSLPQHQQIIICAAAKAFRGSKKDATVGELNKLYLEICKSWMISPAGITEFTNMCTVLNDQGILKVGQARRDKLKRVSLRVDESDITFALQVNSLFILFFANP | failed
4 | MPVNQYQQEVGETLEHFAVGQMPDVKFLEGRYCSVEHIDARKHLNDIIDFYWKNAVPSDWTYMFDQPFETAEAVQERLQDYEKSENPYFFAIRDKETDKVLGTFSLMRIDPKNRVLEMGRVIYAPALQKTSAATEAQYLVMNYVFENLGYRRYEWKCDHLNQSSGNAAKRLGFTYEGTFRKHVVYKGRTRDTDWFSVIDQDWPKLKKRFENWLSPKNFDKTGQQIKALKDC | failed
5 | MRMLAHAIKVWNENTGALSHLEIEPLPHQIHLVHHILASGNFNWLIADDVGLGKTIETGMLLHALQQRDLAKRILLITPAGLTKQWQEELYHKFKLEDFEIYGEDFFINEPRQWKMHDCVIGSMDRLKQVDHLESLLQAEPWDLVIFDEGHRLSRRQYGQKLDSSERYDLAKNLRSQTKHMLLLSATPHQGMQDKFVALLELLRPERR | failed
6 | MGRFHQYQPRQLSVASVNHADDNDRLPAISLVTPSFNQASFVEKTLESVLGQNYPKLQYIVQDGLSTDGTREILGRYATRNVDIRIETDGGQTDALNKGFAHADGEIMGYLNSDDLLLPGTLCLVGRYFRDNPSVDVIYGNRLIVDEAGREVGRWVLPEHDSEILTFIDYVPQETMFWRRRIWERVGGRFDTDFHFAMDWELLLRFIHAGAVFRHLPGLFGAFRVHGQQKSQAEFLVRGIGEMNGLRLRYGGRNISFVRRIALHWAYLSQHRLADAAFEASLRKNG | failed
7 | MKGDRTLSCMIKTDRGEICIDPAEPILHIIGKKYAIFIVSVLGNDNTRKNFNDLMRAVPGISSTMLSARLHEMNECGLIERHEGDIVTYELTERGREIRKRMLPLIEYLADAD | failed
8 | MSENNSNREPQKDVGKGNNSLMRWVGRLVLFAIILAITSFLTPGFSIRGFWTFVLASVVITGLDYLVESFMKVDASPFGKGLKGFIISAVIIYLAQFLVPNMRVSIIGAILASLVIGVIDAIIPSRSM | failed
9 | YALTEGEDYLVLDKPIPQEQPGKIEVLEFFGYFCVHCHHFDPLLLKLGKALPSDTYLRTEHVVWRPEMLGLARMAAAVKLSGLKYQANSAVFKAVYEQKIRLENRAVAGKWALSQKGFDGKKLMRAYDSPEAAAVALKMQKLTEQYGIDSTPTVIVGGKYRVIFNNGFDGGVHTIKELVAK | failed
10 | MAANNRRMSGKKGAQVGSGGKRRRGLEGKGPTPPAEMRKGHAKQRAANAKARRTTGGRPQQRRGGGRSTSELVVGRNPVYEALREGVPASTLYVQQFIDNDERVREALQLAAERGGINLMEAPRPELDRMTNGLNHQGLVLQVPPYEYAHPEDLVAAAHDEGIDPLIVALDGVTDPRNLGAVVRSVSAFGGHGVVVPERRAAGMTAGAWKTSAGTAARTPVARATNLTRALEQYQKAGITVVGLAADGEAELGDLAALDGPVVIVVGSEGKGLSRLVGETCDFRVRIPMPGGAESLNAGVAAGIVLYEAARRRS | failed
11 | MALKEAHQPQTQPLWHQLGLVLAKHFEPQDAKAVLQLLRQEHEERLQKISLEHLEQLAQYLLAEEPHVEPAGERELEAKARP | failed
12 | MSDSLVVCEVDPELKETLRKFRFRKETNNAAIIMKVDKDRQMVVLEDELQNISPEELKLELPERQPRFVVYSYKYVHDDGRVSYPLCFIFSSPVGCKPEQQMMYAGSKNRLVQTAELTKVFEIRTTDDLTETWLKEKLAFFR | not failed
13 | MTPVCAWIGSPGAKAQLSFAGRGHSTAKRRRGPAGEPAVPGEALPGARGSLKAHPKPWAAAMWARGCLHHIRVWFSWSQQGSGNGRSGWERLAREARGLWQLWCLPGTPNSSPLQTDM | failed
14 | MDYPDLAPRARSWAPHLLGVLRIVAAFLFLQFGTAKLFAFPGPVMPGGGTAPLASLAGIAGAIEAFGGALLLVGLFSRPVAFLLSGEMAVAYFYGHAPQGFWPVLNQGTPAALFAFVFLYLAAAGPGRFSLDGLRGKDAP | failed
15 | MKLKGKGIGKVVVEGEVIVSRKPLSFLGGVDPETGTITDPESDIKGESITGKILVFPKGKGSTVGSYILYALSKNGKGPKAIIVEEAEPIVTAGAIISGIPLITNVDISKLKTGMRVRINPQEGEVEILAEGNLLEHHHHHH | failed
16 | VGDGKNQIFVKSLDGYREVQITDEKEGVSTFKWGPTGKGLYYVTQSKECEEIKKRKDLYGDFQHIGKEHQNNCLYYIEIEKVIQSDTDEHKNRVVYQLTDGKDFHIHEFDISNDGKKVVFMATPSSNMADYINGDLYILHIKAGELQKLNVDKLLGGSVCFSPDGSEICYTASIREKGYYRNHIQDSTLEIYDINTGELIQPLTDFD | failed
17 | MKTITQELKQYMTHLFQLSNNEAWECEALEEAAENILPERFINDSPLVQLTLETYTYYNDELHELSIYPFLMYANNQLISIGYLDHFDMDFLYLTDTQNIIIDERHLLKQGGQDHELEHHHHHH | not failed
18 | MGHHHHHHSHMYRYFTPKIVKRALNIWPPFWGAGISIENISSDFQEVSVILKDRFWNRNANRTQYGGSIFSMTDPVFSLMLMGILRDEYYVWDKQSEIDFISPGTTDLHARFVISDEQLAEIKQETKEGEKHFPQFEVYIYDKKGKVVARVNRTLYVRKKPEFR | not failed
19 | MTFRKPPPTMKPTRSLSASLFSDPHPAAYLAAFAAVMATAVARLYLPEAFTAPSSFLLFVPAVLISAALGGVGPGVFGTTFAWAAVWWVTRDIPFDLVSGLSAAIFLSVGFGMAVGGGWFHAARRRAAAVNDHLRSILDTVPDAVVVIDRAGIMTSFSPAAQRMFGWSEAEAIGKNVSLLMPEPYQSAHDGYLDRYARTGEKRIIGAGRVVVGRRKDGSTFPMELAVGETRGPTPSFTGFIRDLTERQETETRLQELQNELVHVSRLTAMGEMASTLAHELNQPLSAIANLLTGSRRLMDRGREADQAKVRDAIDRAAAQALRAGEVIHRMRDFARRGASEREVESLSKLIEEASALALIGEKERQVDVRLKLDPKADDVFADRVQIQQVLLNLIRNGIDAMQAQEPRKRALLIRTGLTEEGWSEVSVADTGPGIAPEVLERLFQPFMTTKPQGMGVGLSISRSIIEAHGGRIWAEANPGGGALFRFTLPPAESLAGEKETIDD | failed
20 | MEHGTESFWTDIKRYEDILAKDPGSYCFAPLSELYRKVGLLDDAIMTARTGIGQHPEYVGGYMALGRACFEKGERTESRAALEKVVRVTPDNLLAQKLLSQIYVDAGESDLARRCLEIILSLSPGDLESKLMLDAMCRQPRENADRADDLFNEMGAAAAIDLEDESLLEEIEIIEELVDEVVDEEDLAAFTAHAPPPPLAEESFADVLLDEEPVANADVPSPRDVLSTGTVADLYIAQGFPKKALAIYRDLLDADPLNEDIRNRMVDLKKRIDEDEARARESVLAEAVSATDTTAQIQGDLTADREAFKEEAASGFAVESAHEVDIPLEVAVSAESSLNVAEEKEASAAHVVSALEGWLDSIRRIRQCRSVLH | failed
21 | FEKVYHLKLSIKGITPQIWRRIQVPENYTFLDLHKAIQAVMDWEDYHLHEFEMVNPKTGMLDKIGAEGDDFDAFGGPLVSEKKAKLSDYFTLENKEALYTYDFGDNWQVKVRLEKILPRKEGVEYPICTAGKRAAVPEDSGGVWGYEEMLEVLKDSEHEEYEDTVLWLGDDFDPEYFDPKDVS | failed
22 | VRQVEEYIEANWMRPITIEKLTALTGISSRGIFKAFQRSRGYSPMAFAKRVRLQHAHNLLSDGATPTTVTAAALSCGFSNLGHFARDYRDMFGEKPSETLQRARP | not failed
23 | MDNFVVTFARGFGTGGKAIASQLAKELGIHCYENRILTLASQLSGLDENVFQEVNEKLREEGGFTSFLRGLPRAKGYISRNEKFKSDDRLFEYQSQIINELADKESCVIVGKCADYVLKNRPNVVSIYIEAPRAFCVERTITNMGVTPEVANATIERTDKFRADYYKYYTHGNYWTNPVNYDLTLNSERVGVENCVKTIEQYLIIKGFIKADMIKPAGELI | failed
24 | MLTRPMGEGYIQYLRLSKETTQPADSKIPGLWSSSVRPEFCCIYRVPDRLRKVNPEAYTPQMLLIGPLHHSKKAEALKRYKTDLRYLNYLNMELHKKKCLDSIADIYGDQPVKEFRRIIEINEKFIRDSYAESTIWINTKDFVEMILHDSVFILLFFIQTGSTLNFNKKEDILFNQSRLINATAILEDLILLENQLPYALLEKLFEPFSSNVNTKETFRDITLRAFRFEGKIKEEVRFQHFTDLFRCVRVSTLSLTEEQINIAKNEPPKSRKIMYNADKLDSAGVNFVNVDEENDLSLVITFKDGILKMPCFTVEDNTERVVRNLMALEQCHYPRTTFVCDYISFLDFLINTDQDVDLLAKKGIVKNWLGHQGSVTEMVNKLCLGLVDFGSHYSDIVENLNKHYDNRLNRSVGTLRRVYFKDLWTGTATIAAVVLLVLTLIQTVASILQVMMQNDNKSPPPPAPSRGL | failed
25 | MDSKQQRIGVIGTGAIGGFYGLMLAHAGHDVHFLLRSEFEAVNRAGLSLNSAVHGFRRLAPVQAYHSAQDMPPCDWLLVGAKTTGNDELAPLIRAAAAPGAKVLLLQNGLGVEERLRPLLPESLHLLGGLCFICVHRGEPGVIEHQAYGGVNLGYHSGPADERRRREIVEEGAALFRESGLESTAMPDLEQARWQKLVWNIPYNGLSVLLKSSTAPLMANADSRSLIEAIMEEVIGAAGACGFILPEGYADQLLAATERMPDYRPSMYHDFAHGRPLELAAIYAAPLARAAAAGYR | failed
26 | MNSSPPPANSANGDTTNNGENGQDLNLNFLDKIRLSAKRDAKEDEGEELPTELNTINSAGGFLVVSPDKLSVKYTNTNLHGHDVGVVQANKPAPIKCLTYYFEIFVKDSGIKGQIAIGFTKESFKMRRQPGWEVNSCGYHGDDGYLYRGQGKGEPFGPKFTKDDAVGGGINYASQEFFFTKNGTIVGKIPKDIRGHLFPTVAVHSQNEEVLVNFGKKKFAFDIKGYEASERNKQQLAIEKISIPPNIGYGLVKTYLLHYGYEETLDAFNLATKNTVPPIHIDQENAIDEDDSSYALKQRKNLRQLVRNGEIDTALAELQKLYPQIVQDDKSVVCFLLHCQKFIELVGKLEEGVNYGRLELAKFVGLTGFQDIVEDCFALLAYEKPEESSVWYFLEDSQRELVADAVNAAILSTNPNKKDVQRSCHLQSHLEKLLRQLTVCCLERRSLNGDQGETFRLRHVLNNNR | failed
